Experimental data reported in the MegaScale stability set (Tsuboyama et al. 2023).

B1: EEHEE_rd3_0130 (parent)
chain: TKIIVNGKTFTAPTEEEAQKIAEKLAKKAGLTVHKKNGTFELK

Variants of: B1
Test: folding stability dG (cDNA display proteolysis); higher = more stable
Conditions: PBS, room temperature

Row | Variant | folding stability dG [kcal/mol]
1 | T32D | -0.061
2 | T32K | 0.69
3 | T32C | 1.05
4 | T32G | -0.284
5 | T32V | 1.02
6 | T32Y | 0.023
7 | T32P | -0.446
8 | T32L | 0.291
9 | T32H | 0.159
10 | T32M | 0.321
11 | T32F | 0.022
12 | T1C | 0.97
13 | T1G | 0.627
14 | T1H | 1.05
15 | T1W | 2.99
16 | T1I | 1.37
17 | T1A | 0.581
18 | T1R | 0.322
19 | T1K | 0.145
20 | T1F | 2.15
21 | T1M | 0.565
22 | K35M | 0.631
23 | K35H | 0.653
24 | K35T | 0.197

Row | Variant | folding stability dG [kcal/mol]
25 | K35E | 0.03
26 | K35S | 0.33
27 | K35Q | 0.41
28 | K35D | -0.099
29 | F10W | 0.82
30 | G7I | -0.201
31 | G7T | -0.032
32 | G7V | -0.592
33 | G7Q | 0.025
34 | G7D | -0.326
35 | G7W | 0.187
36 | G7N | 0.208
37 | E23W | 0.894
38 | E23M | 1.04
39 | E23K | 0.602
40 | E23S | 0.686
41 | E23F | 0.837
42 | E23Q | 0.752
43 | E23H | 0.803
44 | E23N | 0.832
45 | E23T | 0.669
46 | E23V | 0.598
47 | A26I | -0.198
48 | A26C | 0.45

Row | Variant | folding stability dG [kcal/mol]
49 | A26W | -0.138
50 | A26N | -0.556
51 | A26Q | -0.508
52 | A26R | -0.166
53 | A26H | -0.447
54 | A22S | 0.153
55 | A22I | 0.601
56 | A22Y | -0.256
57 | A22W | 0.017
58 | A22T | -0.186
59 | A22Q | -0.657
60 | A22C | 0.374
61 | K27A | 0.812
62 | K27E | 0.532
63 | K27S | 0.587
64 | K27Q | 0.76
65 | K27G | 0.228
66 | K27F | 0.736
67 | K27I | 0.597
68 | K27V | 0.456
69 | L25Y | 0.649
70 | L25V | 0.245
71 | L25H | -0.294
72 | L25E | -0.265

Row | Variant | folding stability dG [kcal/mol]
73 | L25R | -0.578
74 | L25C | 1.13
75 | L25G | -0.493
76 | T11M | 0.947
77 | T11W | 1.68
78 | T11F | 1.38
79 | T11Q | 0.319
80 | T11A | 0.154
81 | T11I | 1.03
82 | T11H | 0.697
83 | T11V | 0.762
84 | T11R | 0.493
85 | T11K | 0.248
86 | N6W | 1.47
87 | N6A | 0.745
88 | N6F | 1.61
89 | N6Q | 0.329
90 | N6I | 0.222
91 | N6L | 0.861
92 | N6D | 0.319
93 | N6R | 0.555
94 | N6K | 0.266
95 | N6T | -0.318
96 | N6C | 2.05

Row | Variant | folding stability dG [kcal/mol]
97 | G30Y | -0.036
98 | G30F | -0.093
99 | G30R | 0.057
100 | G30M | 0.018
101 | G30K | 0.272
102 | G30W | -0.249
103 | G30I | -0.078
104 | G30S | 0.137
105 | F40R | -0.061
106 | F40T | -0.035
107 | F40L | 0.724
108 | F40H | 0.087
109 | F40E | 0.251
110 | F40V | 0.436
111 | F40K | -0.039
112 | F40A | -0.34
113 | V33T | 0.223
114 | V33S | -0.023
115 | V33R | -0.007
116 | V33D | -0.376
117 | V33W | 0.592
118 | V33F | 0.358
119 | K2Y | 0.641
120 | K2R | 0.793

Row | Variant | folding stability dG [kcal/mol]
121 | K2W | 0.519
122 | K2M | 0.746
123 | K2H | 0.273
124 | K2Q | 0.574
125 | K2I | 0.742
126 | K2T | 0.448
127 | K2D | 0.156
128 | K2C | 1.16
129 | T39G | 1.13
130 | T39W | 1.3
131 | T39C | 1.17
132 | T39P | 0.066
133 | T39F | 1.21
134 | N37G | 0.697
135 | N37M | 0.06
136 | N37R | -0.324
137 | N37Y | -0.556
138 | N37S | -0.174
139 | N37H | -0.068
140 | N37C | 1.05
141 | N37L | 0.216
142 | N37T | -0.324
143 | E16M | 0.821
144 | E16G | 0.554

Row | Variant | folding stability dG [kcal/mol]
145 | E16W | 0.933
146 | E16N | 0.47
147 | E16Y | 0.864
148 | E16H | 0.749
149 | E16T | 0.649
150 | E16D | 0.611
151 | K20T | 0.562
152 | K20A | 0.82
153 | K20D | 0.538
154 | K20V | 0.724
155 | K20Q | 0.722
156 | K20G | 0.122
157 | K20S | 0.688
158 | K20Y | 0.745
159 | K20P | -0.378
160 | E41F | 1.45
161 | E41L | 0.903
162 | E41K | -0.978
163 | E41W | 1.45
164 | E41H | 0.56
165 | G38A | -0.621
166 | G38N | 0.509
167 | G38E | 0.033
168 | G38F | 0.05

Row | Variant | folding stability dG [kcal/mol]
169 | G38L | -0.199
170 | G38H | -0.107
171 | P13Y | 0.302
172 | P13L | 0.492
173 | P13F | 0.391
174 | P13R | 0.954
175 | P13Q | 0.651
176 | P13W | 0.532
177 | P13N | 0.67
178 | P13S | 0.761
179 | P13H | 0.651
180 | P13E | 0.598
181 | P13G | 0.731
182 | K36G | 0.596
183 | K36Y | 1.12
184 | K36T | 1.02
185 | K36C | 0.875
186 | K36E | 0.75
187 | K36N | 1.03
188 | K36L | 1.01
189 | A12T | 0.083
190 | A12W | 0.836
191 | A12V | 1.34
192 | A12F | 1.81

Row | Variant | folding stability dG [kcal/mol]
193 | A12H | 0.346
194 | A12D | -0.138
195 | A12Y | 1.63
196 | A12Q | -0.091
197 | A12L | 1.19
198 | A12G | 0.091
199 | A12M | 1.02
200 | L31Y | 0.657
201 | L31C | -0.1
202 | L31V | -0.031
203 | L31W | 0.742
204 | L31K | -0.636
205 | L31G | -0.504
206 | L31R | -0.423
207 | L31F | 0.713
208 | K28H | 0.757
209 | K28M | 1.05
210 | K28G | 0.475
211 | K28D | 0.738
212 | K28V | 0.795
213 | K28F | 0.971
214 | K28T | 0.727
215 | Q19L | 0.972
216 | Q19T | 0.379

Row | Variant | folding stability dG [kcal/mol]
217 | Q19D | -0.048
218 | Q19K | 0.789
219 | Q19G | 0.357
220 | Q19F | 0.959
221 | Q19P | -0.468
222 | Q19N | 0.383
223 | Q19V | 0.457
224 | Q19R | 1.04
225 | Q19M | 0.872
226 | Q19Y | 1.03
227 | H34T | 0.992
228 | H34E | 0.679
229 | H34R | 0.72
230 | H34W | 0.405
231 | L42R | -0.081
232 | L42E | 0.201
233 | L42K | 0.146
234 | L42A | 0.214
235 | L42G | 0.249
236 | L42V | 0.79
237 | I21M | 0.647
238 | I21L | 0.99
239 | I21K | 0.005
240 | I21D | -0.719

Row | Variant | folding stability dG [kcal/mol]
241 | I21F | 1.01
242 | I21A | -0.095
243 | I21V | 0.46
244 | I21H | -0.132
245 | I21R | 0.152
246 | I21P | -0.76
247 | I21C | 1.51
248 | I21Y | 0.645
249 | K43M | 0.985
250 | K43W | 1.16
251 | K43L | 1.18
252 | K43Y | 1.15
253 | K43S | 0.91
254 | K43R | 1.07
255 | K43T | 1.07
256 | K43P | -0.2
257 | K43A | 0.626
258 | K24I | 0.99
259 | K24N | 0.76
260 | K24D | 0.676
261 | K24Y | 1.64
262 | K24L | 1.11
263 | K24T | 0.939
264 | K24Q | 0.873

Row | Variant | folding stability dG [kcal/mol]
265 | K24E | 0.799
266 | K24F | 1.47
267 | K24H | 0.996
268 | K24A | 1.06
269 | K24S | 0.873
270 | K8T | 0.475
271 | K8Y | 1.33
272 | K8M | 0.926
273 | K8D | -0.391
274 | K8W | 1.53
275 | K8G | -0.232
276 | K8F | 1.25
277 | A29N | 1.17
278 | A29F | 2.88
279 | A29L | 2.45
280 | A29W | 3.21
281 | A29P | -0.744
282 | A29S | 0.857
283 | A29E | 0.607
284 | A29R | 1.04
285 | A29Q | 0.726
286 | A29G | 0.616
287 | A29C | 2.56
288 | A29V | 0.495

Row | Variant | folding stability dG [kcal/mol]
289 | A29M | 2.08
290 | T9M | 0.652
291 | T9V | 1.12
292 | T9P | -0.619
293 | T9W | 0.968
294 | T9K | 0.007
295 | I4N | -0.074
296 | I4W | 0.365
297 | I4E | -0.066
298 | I4P | -0.499
299 | I4Y | 0.689
300 | I4D | -0.441
301 | I4Q | 0.068
302 | I4H | 0.173
303 | I4V | 0.695
304 | I3L | -0.098
305 | I3R | -0.394
306 | I3D | -0.633
307 | A18W | -0.4
308 | A18E | -0.74
309 | A18C | 0.561
310 | A18Q | -0.715
311 | A18D | -0.679
312 | A18I | -0.353

Row | Variant | folding stability dG [kcal/mol]
313 | E17M | 1.19
314 | E17A | 0.997
315 | E17Q | 0.916
316 | E17Y | 0.614
317 | E17T | 0.526
318 | E17I | 1.33
319 | E17R | 0.677
320 | E17K | 0.72
321 | V5K | -0.361
322 | V5R | -0.49
323 | V5Y | 1.4
324 | V5C | 1.63
325 | E15H | 0.545
326 | E15I | 0.689
327 | E15V | 0.847
328 | E15C | 1.07
329 | T14I | -0.354
330 | T14G | 0.32
331 | T14D | 0.286
332 | T14H | -0.337
333 | T14M | -0.226
334 | T14N | 0.897
